Assay results from IntAct's records for PubMed 15350535.

Target: PAK1, Q13153-2
Sequence (Q13153 other isoform, or with tags, fused parts or gaps): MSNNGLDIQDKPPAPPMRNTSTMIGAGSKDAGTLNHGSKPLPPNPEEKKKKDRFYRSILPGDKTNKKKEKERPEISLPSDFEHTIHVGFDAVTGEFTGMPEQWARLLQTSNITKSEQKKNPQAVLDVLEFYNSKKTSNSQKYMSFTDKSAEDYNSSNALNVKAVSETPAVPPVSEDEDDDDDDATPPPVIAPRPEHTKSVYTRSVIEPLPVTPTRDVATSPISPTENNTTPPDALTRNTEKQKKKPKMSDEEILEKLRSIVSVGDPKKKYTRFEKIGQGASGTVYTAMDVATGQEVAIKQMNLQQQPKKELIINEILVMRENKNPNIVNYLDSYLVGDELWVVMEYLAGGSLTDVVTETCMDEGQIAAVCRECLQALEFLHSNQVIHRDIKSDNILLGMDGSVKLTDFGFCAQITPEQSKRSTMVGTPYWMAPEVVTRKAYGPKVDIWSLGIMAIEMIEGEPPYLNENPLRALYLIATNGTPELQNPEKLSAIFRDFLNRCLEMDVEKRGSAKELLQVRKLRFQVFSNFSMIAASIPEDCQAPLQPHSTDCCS

Rho-related GTP-binding protein RhoU (Homo sapiens), Q7L0Q8 T63N
effect of a mutation on the interaction: decreasing interaction
